# Experimental data published in the DeepSol protein solubility set.
# Assay: soluble on expression in E. coli; label from the status in PepcDB or PDB records
row,Sequence,soluble on expression in E. coli
1,MGSDKIHHHHHHMAKLKISKKISTALINSLGAGVVPRVGVEYIAVGREKELKSLLQNLDDIAEGVAAFRFIIGNYGSGKSFLLQLIRNRAMEQGFVVADADLSSERRLAGSNNEGVATYRELMSHLATKTRPDGGALVSILEGWINKIQQEVVKETEMRPNDDGFDDQVESKIREVVQYIEGLVHGFDFGSVIIAYWRGYRMDDDNLKNAAMRWLRGEFTTKVEAKAALGVRVIIDDDSWYDYIKLFAKFVAEIGYKGLLILVDEAVHLYQISTTVTREKNYNRLLAMFNDTMQCKAEHLGIVVGGTTKFLEDPKRGLFADQAWQRRTKESRFVAQANVQENSGPVIRLNPLSEAEILTLLQRLAEIHALNFGYEQTLTNRELKEFVQEIINRLGAEALLTPGEIVRDFMSVLNILHQNPGIVFAELIHGSKFKPTAMGKNPNVDENGAAEFSL,not soluble
2,GTEETAKVVPMAVITPAINQLTDQEKAEGWALLFDGKTTKGWRGAHKDAFPDHGWMVKDGELIVQKSDGSESTNGGDIVTEGEYSAFEFSVDFKITEGANSGIKYFVTEQEKQKGSAYGLEFQLLDDAKHPDAKLYTTFPGSRTLGSLYDLKKSENIHFNGVGEWNTAVVKVFPNNHVEHWLNGVKVLEYERGSKEFRDLVKGSKYADPSYNAGGAFGEAPKGHILLQDHGDEVAFRNIKVKELK,soluble
3,MRMLAAERRDHLLGLLARQGKIVAKDVAAELRISEDTVRRDLRDLASEGLCQRVYGGALPVSPAVADYGARRTVAPDGKRKVASAAAGLVRPGGVVILDGGTTALAVVHALPEDLDCTVITHSPTIAAALLDHPRAEVFVLGGRLFKHSAVACGAAAVEAAQNVSADLFLLGVTGVHLEAGLTTGDAEDAAMKRALAARAADTYVLASSEKIGTASRYRVLPWEEISGLVTDTPPHDPVIEQLTAGGVDVLAADAAALEHHHHHH,not soluble
4,MSLQIKDEILSLLKRGKNLLAFSYGSDSSVLFYLLMQEKIDFDLVMINYKTRKNSDLEELKAKELALKFHKKIFIKHAPKFQSNFEKKARDFRYDFFEKICLEQGYDHLILAHHLNDQFEWFLMQLSRGAGLAEILGMQECEKRSNYTLLRPLLFISKDEISSFLKEKDIFYFHDESNENEKYFRNYIRKNFSNAFVSEFHQGLKRSFSYLDEDRKKLYDFENIKEIQGLLICPKNESLIARAVKMKGLLLSTAQRKELLKGDCVLGGKIALAYKNEQAIVFEYETCQKLPKNFKEECRIAKIPRLLRAYLYNHKIDISSLSEGHHHHHH,soluble
5,MGLGRVITRSLSSVEPALSQKLTIQPAIERSPTDLLNALSETVGPDTTAPHFAYIDDPITIPSTQSTKKTYFMAKEFGKRAARELATEWPTLFAFDRDQPQLPVFRPRHLADPLQVEPTENNLLKMISSREVKDSCILYERMRSENVDVSEKVQLELFRLVTYYNSSNVPFAEWEEFVGMRNFGEDSTSSWKSGAVADLLFETLPKTDETVSIMIAGLCKFSDHSSLERARELYKEHRAAKGKVYREAFNGLIGASSYSVGKKLVAEMISLRMTPDIFTFNALLSSAAKAGKFEDRVKAFTEIIGEMKEIGVEPALSSFHLIIKNIIDFKLLDNEKRESDEQKKTYNHQLTVAISWLNEIQNSLTGKTLKPITSTCNLFFVEAMGIHYRAANENLAENLVSIYESKANEVKMPAFTIESMFYNRQLQLAVEQSASLNRIYDLYTTMVPRLVGVNNYLSSLVFRKLAASSDRHWPLLRRVIIDGIAAGQMNGVIGEEMRKQLCNVQLHTLGTSEREQFTSLVQKLVAVWVEFSQFTEERMRRLQRKLSPSQISECALLLTRIGEQQKAYELLDLLLDETASSGDEATVYPRGHARPWAMAELFEDALRKRDTYAAATCLQIMSLTANRAKLEPLANRIFEKCNVNQEQVRIIQGFIRLRPQ,not soluble
6,KPGAPWWKSAVFYQVYPRSFKDTNGDGIGDFKGLTEKLDYLKGLGIDAIWINPHYASPNTDNGYDISDYREVMKEYGTMEDFDRLMAELKKRGMRLMVDVVINHSSDQHEWFKSSRASKDNPYRDYYFWRDGKDGHEPNNYPSFFGGSAWEKDPVTGQYYLHYFGRQQPDLNWDTPKLREELYAMLRFWLDKGVSGMRFDTVATYSKTPGFPDLTPEQMKNFAEAYTQGPNLHRYLQEMHEKVFDHYDAVTAGEIFGAPLNQVPLFIDSRRKELDMAFTFDLIRYDRALDRWHTIPRTLADFRQTIDKVDAIAGEYGWNTFFLGNHDNPRAVSHFGDDRPQWREASAKALATVTLTQRGTPFIFQGDELGMTNYPFKTLQDFDDIEVKGFFQDYVETGKATAEELLTNVALTSRDNARTPFQWDDSANAGFTTGKPWLKVNPNYTEINAAREIGDPKSVYSFYRNLISIRHETPALSTGSYRDIDPSNADVYAYTRSQDGETYLVVVNFKAEPRSFTLPDGMHIAETLIESSSPAAPAAGAASLELQPWQSGIYKVK,soluble
